# Data as given in paper PMC2967368.
# Experiments:
# Survivin [1] = target: Survivin (UniProt O15392); test: biotinylated peptide pull-down, immunoblot; details: reference: unmodified H3(1-21) peptide; sites T3
# Survivin [2] = target: Survivin (UniProt O15392); test: peptide pull-down, Coomassie staining; details: reference: unmodified H3 peptide; sites T3
# [3] = target: Histone-H3 (1-21) peptide phosphorylated at Thr-3 (UniProt P68431); test: fluorescence polarisation
substance,measurement,setting,value
Histone-H3 1-21 (from UniProt P68431) H3T3ph peptide,binding against the reference,Survivin [1],stronger
Histone-H3 (from UniProt P68431) H3T3ph peptide,binding against the reference,Survivin [2],stronger
"xISD complex containing INCENP(1-58), Survivin and Dasra-A (from UniProt Q4V7H8 1-296)",fold enhancement of binding by T3ph against unmodified H3,[3],20 fold
